Measured values published in PMC10786891, “Massively parallel profiling of RNA-targeting CRISPR-Cas13d”.
Where a chain is given by its changes, count along the chain named. Names may count otherwise.

T1: EsCas13d, nuclease-dead (Eubacterium siraeum, UniProt B0MS50, R295A;H300A;R849A;H854A)
T1 sequence: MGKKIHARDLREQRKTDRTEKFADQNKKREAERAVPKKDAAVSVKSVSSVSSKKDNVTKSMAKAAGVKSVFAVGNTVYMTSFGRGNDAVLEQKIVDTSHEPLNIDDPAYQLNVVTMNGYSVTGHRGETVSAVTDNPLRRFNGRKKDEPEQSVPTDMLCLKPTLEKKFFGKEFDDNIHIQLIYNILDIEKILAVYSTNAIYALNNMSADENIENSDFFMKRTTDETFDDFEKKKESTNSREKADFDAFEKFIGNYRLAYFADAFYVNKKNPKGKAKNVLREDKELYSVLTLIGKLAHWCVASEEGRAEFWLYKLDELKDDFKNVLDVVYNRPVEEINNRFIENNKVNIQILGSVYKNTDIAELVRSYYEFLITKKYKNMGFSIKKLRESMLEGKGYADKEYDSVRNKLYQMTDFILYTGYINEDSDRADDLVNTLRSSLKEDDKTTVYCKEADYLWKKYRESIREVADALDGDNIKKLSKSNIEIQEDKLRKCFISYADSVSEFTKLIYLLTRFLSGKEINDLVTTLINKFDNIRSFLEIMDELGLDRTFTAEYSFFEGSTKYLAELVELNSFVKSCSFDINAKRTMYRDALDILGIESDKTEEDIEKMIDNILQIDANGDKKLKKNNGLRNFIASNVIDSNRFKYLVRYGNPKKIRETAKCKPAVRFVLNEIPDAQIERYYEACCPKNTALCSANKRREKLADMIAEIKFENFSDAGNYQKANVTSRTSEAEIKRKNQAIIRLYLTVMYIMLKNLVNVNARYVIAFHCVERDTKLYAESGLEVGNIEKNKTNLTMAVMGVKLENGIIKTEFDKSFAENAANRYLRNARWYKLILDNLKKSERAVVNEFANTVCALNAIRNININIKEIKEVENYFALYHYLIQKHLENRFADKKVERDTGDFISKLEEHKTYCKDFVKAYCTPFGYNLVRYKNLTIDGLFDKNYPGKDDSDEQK

B1: target 2 MT 5'PFS CCC 3'PFS CCU (mixed)
RNA 1: CACCCGUGCAAAAUUGCAGGGGUCUAAAACCUUCUCCAAAUUGUUUCAUCCU
RNA 2: GGGAAUGGAUCCACAUCUACGAAUUCCCCAGGAUGAAACAAUUUGGAGAAGCCUAGAUCGGAAGAGCACACGU
B2: target 2 MT 5'PFS GCC 3'PFS AGA (mixed)
RNA 1: B1 RNA 1
RNA 2: B1 RNA 2 with C27G, C52A, C53G, U54A
B3: target 2 MT 5'PFS UGA 3'PFS UCA (mixed)
RNA 1: B1 RNA 1
RNA 2: B1 RNA 2 with C27U, C28G, C29A, C52U, U54A
B4: target 2 MT 5'PFS GGU 3'PFS AUA (mixed)
RNA 1: B1 RNA 1
RNA 2: B1 RNA 2 with C27G, C28G, C29U, C52A, C53U, U54A
B5: target 2 MT 5'PFS GAU 3'PFS CAA (mixed)
RNA 1: B1 RNA 1
RNA 2: B1 RNA 2 with C27G, C28A, C29U, C53A, U54A
B6: target 2 MT 5'PFS CUA 3'PFS CCA (mixed)
RNA 1: B1 RNA 1
RNA 2: B1 RNA 2 with C28U, C29A, U54A
B7: target 2 MT 5'PFS UCG 3'PFS AGG (mixed)
RNA 1: B1 RNA 1
RNA 2: B1 RNA 2 with C27U, C29G, C52A, C53G, U54G
B8: target 2 MT 5'PFS UAC 3'PFS CCG (mixed)
RNA 1: B1 RNA 1
RNA 2: B1 RNA 2 with C27U, C28A, U54G
B9: target 2 MT 5'PFS GAU 3'PFS CAC (mixed)
RNA 1: B1 RNA 1
RNA 2: B1 RNA 2 with C27G, C28A, C29U, C53A, U54C
B10: target 2 MT 5'PFS CAG 3'PFS CUG (mixed)
RNA 1: B1 RNA 1
RNA 2: B1 RNA 2 with C28A, C29G, C53U, U54G
B11: target 2 MT 5'PFS CGC 3'PFS CAG (mixed)
RNA 1: B1 RNA 1
RNA 2: B1 RNA 2 with C28G, C53A, U54G
B12: target 2 MT 5'PFS CGC 3'PFS CAU (mixed)
RNA 1: B1 RNA 1
RNA 2: B1 RNA 2 with C28G, C53A
B13: target 2 MT 5'PFS GGU 3'PFS UCU (mixed)
RNA 1: B1 RNA 1
RNA 2: B1 RNA 2 with C27G, C28G, C29U, C52U
B14: target 2 MT 5'PFS GGU 3'PFS UCG (mixed)
RNA 1: B1 RNA 1
RNA 2: B1 RNA 2 with C27G, C28G, C29U, C52U, U54G
B15: target 2 MT 5'PFS CCU 3'PFS UCU (mixed)
RNA 1: B1 RNA 1
RNA 2: B1 RNA 2 with C29U, C52U
B16: target 2 MT 5'PFS AAC 3'PFS AUU (mixed)
RNA 1: B1 RNA 1
RNA 2: B1 RNA 2 with C27A, C28A, C52A, C53U
B17: target 2 MT 5'PFS UCG 3'PFS AGA (mixed)
RNA 1: B1 RNA 1
RNA 2: B1 RNA 2 with C27U, C29G, C52A, C53G, U54A
B18: target 2 MT 5'PFS CGC 3'PFS CAA (mixed)
RNA 1: B1 RNA 1
RNA 2: B1 RNA 2 with C28G, C53A, U54A
B19: target 2 MT 5'PFS UAC 3'PFS CCA (mixed)
RNA 1: B1 RNA 1
RNA 2: B1 RNA 2 with C27U, C28A, U54A
B20: target 2 MT 5'PFS GGU 3'PFS UCC (mixed)
RNA 1: B1 RNA 1
RNA 2: B1 RNA 2 with C27G, C28G, C29U, C52U, U54C
B21: target 2 MT 5'PFS AAC 3'PFS UUG (mixed)
RNA 1: B1 RNA 1
RNA 2: B1 RNA 2 with C27A, C28A, C52U, C53U, U54G
B22: target 2 MT 5'PFS GAU 3'PFS ACU (mixed)
RNA 1: B1 RNA 1
RNA 2: B1 RNA 2 with C27G, C28A, C29U, C52A
B23: target 2 MT 5'PFS CAG 3'PFS CUC (mixed)
RNA 1: B1 RNA 1
RNA 2: B1 RNA 2 with C28A, C29G, C53U, U54C
B24: target 2 MT 5'PFS GGU 3'PFS AUU (mixed)
RNA 1: B1 RNA 1
RNA 2: B1 RNA 2 with C27G, C28G, C29U, C52A, C53U
B25: target 2 MT 5'PFS GGU 3'PFS AUC (mixed)
RNA 1: B1 RNA 1
RNA 2: B1 RNA 2 with C27G, C28G, C29U, C52A, C53U, U54C
B26: target 2 MT 5'PFS GAU 3'PFS CAU (mixed)
RNA 1: B1 RNA 1
RNA 2: B1 RNA 2 with C27G, C28A, C29U, C53A
B27: target 2 MT 5'PFS GAU 3'PFS CAG (mixed)
RNA 1: B1 RNA 1
RNA 2: B1 RNA 2 with C27G, C28A, C29U, C53A, U54G
B28: target 2 MT 5'PFS UGA 3'PFS UCC (mixed)
RNA 1: B1 RNA 1
RNA 2: B1 RNA 2 with C27U, C28G, C29A, C52U, U54C
B29: target 2 MT 5'PFS AAC 3'PFS AUA (mixed)
RNA 1: B1 RNA 1
RNA 2: B1 RNA 2 with C27A, C28A, C52A, C53U, U54A
B30: target 2 MT 5'PFS CGC 3'PFS CAC (mixed)
RNA 1: B1 RNA 1
RNA 2: B1 RNA 2 with C28G, C53A, U54C
B31: target 2 MT 5'PFS UAC 3'PFS CCC (mixed)
RNA 1: B1 RNA 1
RNA 2: B1 RNA 2 with C27U, C28A, U54C
B32: target 2 MT 5'PFS UGA 3'PFS UCG (mixed)
RNA 1: B1 RNA 1
RNA 2: B1 RNA 2 with C27U, C28G, C29A, C52U, U54G
B33: target 2 MT 5'PFS AAC 3'PFS AUC (mixed)
RNA 1: B1 RNA 1
RNA 2: B1 RNA 2 with C27A, C28A, C52A, C53U, U54C
B34: target 2 MT 5'PFS GGU 3'PFS AUG (mixed)
RNA 1: B1 RNA 1
RNA 2: B1 RNA 2 with C27G, C28G, C29U, C52A, C53U, U54G
B35: target 1 G13A (mixed)
RNA 1: CACCCGUGCAAAAAUGCAGGGGUCUAAAACUGAGCGGAUAACCUCUCUAUGG
RNA 2: GGGAAUGGAUCCACAUCUACGAAUUCGUACCAUAGAGAAGUUAUCCGCUCACCGAGAUCGGAAGAGCACACGU
B36: target 1 A16C,C21A (mixed)
RNA 1: B35 RNA 1
RNA 2: B35 RNA 2 with C31A, A36C, A39G
B37: target 1 A1C,G13A (mixed)
RNA 1: B35 RNA 1
RNA 2: B35 RNA 2 with A51C
B38: target 1 A18U,C22A (mixed)
RNA 1: B35 RNA 1
RNA 2: B35 RNA 2 with C30A, A34U, A39G

Each binder was assayed against T1, EsCas13d, nuclease-dead (assay: crRNA (strand 1, pre-loaded); Mg2+; 40 mM Tris-HCl pH 7.5, 150 mM NaCl, 6 mM MgCl2, 1 mM DTT, 0.1% Tween-20, 0.2 mg/ml BSA; 25 C; 10 min per concentration, then washed). Conditions: tags: His6-TwinStrep-SUMO cleaved; N-terminal SNAP kept (SNAP-Surface 488); label: 3' end held by stalled T7 RNA polymerase.

Binder	Kd [nM]
B1	7.6 ± 1.8
B2	10.5 ± 1.8
B3	14 ± 6
B4	14.8 ± 2.7
B5	14 ± 5
B6	2.9 ± 1
B7	35 ± 9
B8	6.1 ± 1.4
B9	11.3 ± 2.4
B10	7.2 ± 1.3
B11	3.6 ± 0.6
B12	4.5 ± 0.7
B13	38 ± 7
B14	29 ± 4
B15	2.71 ± 0.32
B16	6.1 ± 1.8
B17	17.9 ± 2.3
B18	7.4 ± 2.5
B19	17 ± 4

Binder	Kd [nM]
B20	76 ± 19
B21	8.5 ± 1.3
B22	20.1 ± 3.2
B23	6.5 ± 1.3
B24	14.8 ± 1.6
B25	20 ± 3
B26	9 ± 1.4
B27	8.7 ± 0.6
B28	~49
B29	6.1 ± 1.4
B30	5.1 ± 0.5
B31	~19
B32	13 ± 1.7
B33	3.8 ± 0.9
B34	16.1 ± 1.6
B35	4.9 ± 0.4
B36	66 ± 11
B37	14.8 ± 2.5
B38	58 ± 6
